For two molecules, OD450 (ref 630 nm) results are on record in patent CN116143909A.

The target in test [1] is HIV-1 P24抗原(购自菲鹏) (HIV-1) (UniProt P04591). Nature of the test: indirect ELISA, P24 coated at 1 ug/ml, antibody at 125 ng/ml, goat anti-human IgG-HRP. For orientation: In an ELISA, binding on a coated surface is turned into a signal by an enzyme label.
Test [2] shares this target. Nature of the test: indirect ELISA, P24 coated at 1 ug/ml, antibody at 250 ng/ml, goat anti-human IgG-HRP.
Test [3] has the same target. As to the kind of experiment: indirect ELISA, P24 coated at 1 ug/ml, antibody at 62.5 ng/ml, goat anti-human IgG-HRP.
The target is the same in test [4]. Nature of the test: indirect ELISA, P24 coated at 1 ug/ml, antibody at 31.25 ng/ml, goat anti-human IgG-HRP.
The target is the same in test [5]. Nature of the test: indirect ELISA, P24 coated at 1 ug/ml, antibody at 15.625 ng/ml, goat anti-human IgG-HRP.
For test [6] the target is unchanged. As to the kind of experiment: indirect ELISA, P24 coated at 3 ug/ml, supernatant of transiently transfected CHO cells diluted 1000-fold, goat anti-human IgG-HRP.

对照抗体 (antibody): the OD450 (ref 630 nm) in test [1] came out at 1.28 OD; in test [2] it was 1.57 OD; in test [3], 0.756 OD; in test [4], 0.537 OD; in test [5], 0.337 OD.

B1: 6F13RMb1 (antibody, human IgG1, kappa, V domains shown)
VH: QVQLVQSGAEVKKPGSSVKVSCKASGGTFSSYAISWVRQAPGQGLEWMGGSIPIFGTTHYAQKFQGRVAIIVDESTSTSYMELSSLRSDDTAAYYCARAATAIFGVPRNNFYAMEVWGQGTTVTVSS
VL: DIVMTQSPLSLSVTPGEPASISCRSSQSILHSNGYNYLDWYLQRPGQSPKLLIYIGSTRASGVPDRFSGSGSGTDFTLKISRVEAEDVGVYYCMQAVQTFFGPGTKVDLKR
Turning to B1, the OD450 (ref 630 nm) in test [1] was 1.42 OD; in test [2] it was 1.52 OD; in test [3] it was 1.03 OD; in test [4] it was 0.673 OD; in test [5] it was 0.455 OD; in test [6], over 1 OD.
